Laboratory results from the supplement of paper PMC10126150.
± gives the standard deviation of the averaged measurements.

System: ATP
Assay: switch fluorescence ratio, 500 uM ATP over buffer (Cy3 cluster intensity, sum of 5 cycles each) (fold (ratio)); higher = stronger signal-on switching upon ATP binding; sequences stand for … in TCGTCGGCAGCGTCAGATGTGTATAAGAGACAGTTTTTTTTTTTTTTTTTTTTTTTTT…TC
Conditions: aptamer strand: ATP DNA aptamer (quencher-CACCTGGGGGAGTATTGCGGAGGAAGG + anchor), 100 nM annealed; ATP concentration: 500 uM
Procedure, shortened: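 After annealing to 100 nM quencher-labelled ATP aptamer, Cy3-labelled switching-strand clusters on a modified Illumina MiSeq flow-cell were imaged in selection buffer. A second image followed after 15 min with 500 uM ATP at 22 °C, and five such buffer/ATP cycles were done, each separated by NaOH stripping and re-annealing. The fluorescence ratio, averaged per switch-domain sequence, is summed target-cycle over summed buffer-cycle Cy3 intensity per cluster, with clusters outside 100-1000 RFU excluded.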
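Note: ATP exposure 15 min at 22 °C before imaging.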

Sequence	switch fluorescence ratio
GTTGTTAATT	1.01 ± 0.029
GTTGTTGAGT	0.997 ± 0.0024
GTTGTTGCTC	0.987 ± 0.04
GTTGTTGGAA	0.963 ± 0.049
GTTGTTGGGT	0.983 ± 0.034
GTTGTTTTCG	0.987 ± 0.039
GTTGTTTTGT	0.985 ± 0.021
GTTGTTTTTA	0.987 ± 0.01
GTTGTTTTTG	1.02 ± 0.028
GTTGTTTTTT	0.988 ± 0.036
GTTTAAAAAA	1 ± 0.021
GTTTAAACTC	0.961 ± 0.022
GTTTAAACTT	0.996 ± 0.039
GTTTAAAGTC	0.989 ± 0.059
GTTTAAAGTG	1 ± 0.026
GTTTAAGTTT	0.996 ± 0.022
GTTTAATCCG	0.975 ± 0.013
GTTTAATGGT	0.9852 ± 0.009
GTTTAATTTA	1.01 ± 0.03
GTTTAGAGTC	1 ± 0.037
GTTTAGGAGG	0.989 ± 0.022
GTTTAGTTTG	0.992 ± 0.044
GTTTATAAAC	0.973 ± 0.064
GTTTATAATG	0.986 ± 0.02
GTTTATGAGC	1 ± 0.022

Sequence	switch fluorescence ratio
GTTTATGCAT	1 ± 0.022
GTTTATTAAA	1.04 ± 0.012
GTTTATTATA	1 ± 0.011
GTTTATTGGC	0.995 ± 0.019
GTTTATTTTT	0.997 ± 0.023
GTTTCAACTG	1 ± 0.12
GTTTCAGGGG	1.09 ± 0.015
GTTTCATATG	1.03 ± 0.047
GTTTCCAACT	1.01 ± 0.021
GTTTCCGTTT	0.973 ± 0.017
GTTTCGAAAA	0.9855 ± 0.0074
GTTTCGTAAT	1.084 ± 0.0038
GTTTCGTATA	0.997 ± 0.044
GTTTCGTGAG	0.994 ± 0.054
GTTTCTTAGC	0.998 ± 0.081
GTTTCTTTCG	1.01 ± 0.067
GTTTGAACGC	1.08 ± 0.018
GTTTGACACT	0.99 ± 0.042
GTTTGAGGGG	0.992 ± 0.012
GTTTGATAGA	0.984 ± 0.027
GTTTGATGTC	1 ± 0.1
GTTTGCAAAT	0.991 ± 0.034
GTTTGCAGCA	1.03 ± 0.027
GTTTGCAGGA	0.995 ± 0.027
GTTTGCGTTA	0.962 ± 0.05

Sequence	switch fluorescence ratio
GTTTGGACAG	1.007 ± 0.01
GTTTGGCGT	1.03 ± 0.045
GTTTGGCGTA	0.967 ± 0.015
GTTTGGGACG	0.9905 ± 0.0082
GTTTGGGGAG	0.977 ± 0.018
GTTTGGGGGA	0.9909 ± 0.0052
GTTTGGGGGC	1.03 ± 0.043
GTTTGGGTAA	0.99 ± 0.037
GTTTGGGTCA	1.03 ± 0.011
GTTTGGTATT	1.01 ± 0.04
GTTTGGTGTG	0.975 ± 0.033
GTTTGTACTC	0.997 ± 0.037
GTTTGTAGAG	0.993 ± 0.026
GTTTGTAGGC	0.9641 ± 0.0017
GTTTGTGGGA	0.974 ± 0.019
GTTTGTGTAC	1.11 ± 0.075
GTTTGTTGAG	0.979 ± 0.025
GTTTGTTGGA	0.967 ± 0.03
GTTTGTTGGT	0.977 ± 0.013
GTTTTAAAGT	1.02 ± 0.017
GTTTTAACGG	1.02 ± 0.029
GTTTTAATGG	1.01 ± 0.025
GTTTTACATT	1.02 ± 0.021
GTTTTAGAGC	1.05 ± 0.025
GTTTTAGATA	0.993 ± 0.031

Sequence	switch fluorescence ratio
GTTTTAGCTG	0.986 ± 0.059
GTTTTAGGGT	1 ± 0.031
GTTTTAGGTT	0.993 ± 0.023
GTTTTAGTCA	0.9989 ± 0.001
GTTTTAGTCC	1.01 ± 0.025
GTTTTATCCT	1.05 ± 0.011
GTTTTATGCT	1.01 ± 0.017
GTTTTCAAGT	0.979 ± 0.039
GTTTTCACGT	1.01 ± 0.013
GTTTTCCGGA	0.996 ± 0.05
GTTTTCGGGC	0.987 ± 0.067
GTTTTCGTTT	0.9711 ± 0.0058
GTTTTGAAAA	0.949 ± 0.019
GTTTTGACAC	1.02 ± 0.013
GTTTTGAGGT	1.02 ± 0.028
GTTTTGCTGT	0.986 ± 0.046
GTTTTGGGGT	0.986 ± 0.013
GTTTTGGTTG	1.01 ± 0.027
GTTTTGGTTT	0.986 ± 0.024
GTTTTGTGGA	1.01 ± 0.007
GTTTTGTGGT	0.954 ± 0.021
GTTTTTAAGT	1.03 ± 0.04
GTTTTTACGG	1.04 ± 0.0059
GTTTTTAGGC	1.02 ± 0.094
GTTTTTAGTG	0.983 ± 0.038

Sequence	switch fluorescence ratio
GTTTTTCCCC	1.11 ± 0.14
GTTTTTCGCC	1 ± 0.02
GTTTTTGAGG	0.977 ± 0.028
GTTTTTGCCA	1.01 ± 0.016
GTTTTTGGAG	0.98219 ± 0.00097
GTTTTTGTGA	0.9693 ± 0.0079
GTTTTTGTGG	0.992 ± 0.01
GTTTTTGTTT	1 ± 0.033
GTTTTTTAAC	1.01 ± 0.04
GTTTTTTAGA	0.9728 ± 0.0018
GTTTTTTCCG	0.992 ± 0.012
GTTTTTTCGG	0.993 ± 0.023
GTTTTTTGAT	1.008 ± 0.0042
GTTTTTTGGT	0.982 ± 0.03
GTTTTTTTAA	1 ± 0.034
GTTTTTTTAG	1 ± 0.033
GTTTTTTTCG	0.9829 ± 0.007
GTTTTTTTT	1.05 ± 0.069
TAAAAAACGG	0.954 ± 0.042
TAAAAAGCGA	0.987 ± 0.012
TAAAAAGCGC	1.03 ± 0.03
TAAAAAGGTA	1.02 ± 0.028
TAAAAAGTAC	1.02 ± 0.027
TAAAAAGTAG	0.992 ± 0.024
TAAAAATACA	1.1 ± 0.13

Sequence	switch fluorescence ratio
TAAAAATCCC	1.16 ± 0.083
TAAAAATCTT	1.01 ± 0.041
TAAAAATGAG	1.014 ± 0.0069
TAAAAATTGG	0.997 ± 0.014
TAAAACAGCG	1.01 ± 0.012
TAAAACGCTC	1.07 ± 0.073
TAAAACTCCA	1.03 ± 0.038
TAAAAGAGGA	0.9974 ± 0.0058
TAAAAGAGGG	0.9558 ± 0.0023
TAAAAGATAG	1 ± 0.019
TAAAAGGGCT	0.999 ± 0.011
TAAAAGGGTA	1 ± 0.019
TAAAAGGGTT	1 ± 0.031
TAAAAGTATT	1.03 ± 0.068
TAAAAGTCGG	1.01 ± 0.019
TAAAAGTG	0.961 ± 0.05
TAAAAGTTTA	1.04 ± 0.016
TAAAAGTTTG	0.996 ± 0.034
TAAAATAGGG	1.01 ± 0.018
TAAAATGTTC	0.988 ± 0.048
TAAAATTGAG	1 ± 0.024
TAAAATTGTA	0.9917 ± 0.0035
TAAACCGGTT	0.984 ± 0.027
TAAACGAAGT	0.956 ± 0.054
TAAAGAATTT	0.98 ± 0.032

Sequence	switch fluorescence ratio
TAAAGAGGGG	1 ± 0.021
TAAAGATGG	0.995 ± 0.027
TAAAGCTTAA	1.05 ± 0.041
TAAAGGATG	0.968 ± 0.019
TAAAGGCACG	1.03 ± 0.07
TAAAGGCGGG	0.987 ± 0.023
TAAAGGCGTG	0.96 ± 0.022
TAAAGGGCTT	1.02 ± 0.018
TAAAGGGGAG	1.01 ± 0.019
TAAAGGGTAA	0.9888 ± 0.0044
TAAAGGGTGG	0.987 ± 0.032
TAAAGGTTCG	0.9618 ± 0.009
TAAAGGTTCT	1.02 ± 0.03
TAAAGTAAAT	0.9668 ± 0.0028
TAAAGTGCAT	1.036 ± 0.0066
TAAAGTGCGA	0.993 ± 0.035
TAAATAAATT	1.01 ± 0.044
TAAATAAGTT	1.004 ± 0.0097
TAAATACTCG	1.25 ± 0.044
TAAATCCTTT	1 ± 0.053
TAAATCGGCA	1.004 ± 0.0021
TAAATCGGCG	0.989 ± 0.023
TAAATGACTA	0.987 ± 0.018
TAAATGGGTG	1.03 ± 0.028
TAAATGTCTG	0.995 ± 0.015

Sequence	switch fluorescence ratio
TAAATTAATC	1.01 ± 0.018
TAAATTAGGG	0.992 ± 0.033
TAAATTGGTA	1.04 ± 0.016
TAACAAATAG	0.9741 ± 0.0062
TAACAAGGGT	1 ± 0.016
TAACACTCCT	1.1 ± 0.02
TAACAGAAGA	0.991 ± 0.017
TAACAGGGGG	0.995 ± 0.017
TAACAGGTTT	0.989 ± 0.016
TAACAGTGTG	1.04 ± 0.046
TAACATCTGT	0.975 ± 0.021
TAACCGCTTT	1.55 ± 0.7
TAACGAGATT	1.02 ± 0.026
TAACGCATG	1.13 ± 0.082
TAACGCTTTT	1.002 ± 0.0065
TAACGGAGGG	0.993 ± 0.04
TAACGGGATG	1 ± 0.017
TAACGTGTTT	1 ± 0.017
TAACTAGGAG	1.12 ± 0.16
TAACTATGTA	1.02 ± 0.034
TAACTGTGGA	1.08 ± 0.085
TAACTTACAT	1.19 ± 0.018
TAACTTGCTC	1.05 ± 0.054
TAACTTTGGC	0.9536 ± 0.0091
TAAGAAATGG	1.02 ± 0.079
